Tests used:
[1] = target: signal recognition particle (SRP), fluorescein-labeled at C421 (E. coli) (UniProt P0AGD7); assay: fluorescence polarisation
[2] = target: RNC_(2A8L) bound to donor-labeled SRP (E. coli | not stated) (UniProt P0AGD7); assay: FRET or BRET
[3] = target: RNC_(luciferase) bound to donor-labeled SRP (E. coli | firefly) (UniProt P0AGD7); assay: FRET or BRET
[4] = target: RNC_(1A9L) bound to donor-labeled SRP (E. coli | not stated) (UniProt P0AGD7); assay: FRET or BRET
[5] = target: RNC_(EspP) bound to donor-labeled SRP (E. coli) (UniProt P0AGD7); assay: FRET or BRET

Kd [1] [nM] | Substance | kon [2] [M⁻¹ s⁻¹] | Kd [3] [nM] | kon [4] [M⁻¹ s⁻¹] | Kd [5] [nM]
130 | RNC_(luciferase): stalled ribosome-nascent chain complex with a nascent chain of firefly luciferase (from UniProt P08659 1-550) | – | – | – | –
108 | RNC_(phoA): stalled ribosome-nascent chain complex with the signal sequence of alkaline phosphatase (phoA) | – | – | – | –
– | SRP receptor (SR), acceptor-labeled (from UniProt P10121 1-497) | 8.8e+06 | 2060 | 9.9e+06 | 311

Substance | Kd [1] [nM] | kon [2] [M⁻¹ s⁻¹] | Kd [3] [nM] | kon [4] [M⁻¹ s⁻¹] | Kd [5] [nM]
RNC_(EspP): stalled ribosome-nascent chain complex with the signal sequence of EspP | 13.6 | – | – | – | –

— paper PMC3760334
